{"source": "paper PMC3852661", "about": "“Structural basis of SUFU–GLI interaction in human Hedgehog signalling regulation” (Acta Crystallographica Section D: Biological Crystallography, 2013)", "key": {"[1]": {"assay": "Thermal stability of MBP-SUFU constructs", "format": "physicochemical", "conditions": "SYPRO Orange, 2.2 µM protein, no peptide, 50 mM Na HEPES pH 7.0, 50 mM NaCl, 5 mM β-mercaptoethanol; heated 20 to 90°C; triplicate", "description": "Recombinant MBP-SUFU proteins were diluted to 2.6 µM in 50 mM Na HEPES pH 7.0, 50 mM NaCl, 5 mM β-mercaptoethanol; the peptides GLI1p and GLI1p-SH (Supplementary Table S1b), synthesized by Dr W. Mawby (University of Bristol), were dissolved in the same buffer. Proteins were spun at 14 000g for 20 min at 4°C before adding SYPRO Orange (Molecular Probes) to a final concentration of 6×. Reaction volumes of 25 µl were prepared in 96-well PCR plates with 2.2 µM protein/SYPRO Orange solution and, where applicable, 44 µM peptide. Plates were sealed with optical tape, heated from 20 to 90°C in 12 s 0.2°C steps in an iCycler and fluorescence was detected using an excitation wavelength of 470 nm and an emission wavelength of 570 nm.\nTo determine whether the IDR affects the GLI-binding properties of SUFU, we used a human GLI1-derived peptide (GLI1p; residues 115–131; Supplementary Table S1b) containing the highly conserved SYGH motif important for interaction with SUFU (Dunaeva et al., 2003[▶]) in a thermal stability assay with MBP-SUFU-FL and MBP-SUFU-Δ (Fig. 4 ▶ a). The addition of GLI1p stabilized both proteins: T m for MBP-SUFU-FL was shifted by 4°C and that for MBP-SUFU-Δ was shifted by 3.6°C. […] The GLI1 dose dependency of this effect was confirmed in a separate experiment with increasing GLI1p concentrations (Supplementary Fig. S7a)."}, "trypsin": {"system": "trypsin", "assay": "Limited proteolysis with trypsin", "format": "physicochemical", "conditions": "100 mM ammonium bicarbonate, 23°C", "description": "SUFU32–484 cloned in pLJMBP6c was expressed in E. coli and purified as described above. The purified protein was digested with trypsin (Sigma–Aldrich) in 100 mM ammonium bicarbonate at 23°C. The protease was inactivated by adding 10 mM PMSF and sample-loading buffer followed by heating at 95°C for 5 min. Protein bands were separated by SDS–PAGE and visualized by Coomassie Blue staining. Proteolytic peptide fragments were identified by N-terminal sequencing (Alphalyse A/S) as well as MALDI–TOF and MALDI–TOF/TOF mass-spectrometric analyses (Ultraflex II and Autoflex III, Bruker Daltonics)."}, "GLI1 [2]": {"system": "GLI1", "assay": "Co-immunoprecipitation with GLI1", "format": "binding", "conditions": "Cos-7 cell lysates, GLI1-FLAG and Myc-SUFU; four independent experiments", "description": "Cos-7 cells were transfected separately with C-terminally FLAG-tagged GLI1 in pCMV5 (Andersson et al., 1989[▶]) and N-terminally Myc-tagged SUFU in pCMV-Script (Stratagene) using Fugene 6 (Roche). 24 h after transfection, the cells were lysed with 50 mM Tris–HCl pH 7.4, 150 mM NaCl, 1% NP-40, 0.25% sodium deoxycholate, 1 mM N-ethylmaleimide (Fluka), 1 mM dithiothreitol and cOmplete Mini protease inhibitors (Roche). Normalized lysates were combined and pre-incubated for 6 h. Co-immunoprecipitation was performed for 16 h using agarose-conjugated anti-FLAG M2 (Sigma–Aldrich) and anti-Myc 9b11 (Cell Signaling) antibodies. The beads were washed three times with 500 µl lysis buffer and the bound protein was eluted by boiling the beads in SDS–PAGE sample buffer and analyzed by Western blotting. Samples were separated by SDS–PAGE, transferred to polyvinylidene fluoride Immobilon-P membranes (Millipore) and probed using anti-Myc 71D10 (Cell Signaling) or anti-Myc 9E10 (Santa Cruz) antibodies and anti-DYKDDDDK tag antibody (Cell Signaling). Similar results were obtained in four independent experiments."}, "GLI1 [3]": {"system": "GLI1", "assay": "GLI1-induced reporter gene activity in HEK 293 cells", "format": "cell-based", "conditions": "transient transfection, HEK 293, 12GLI-RE-TKO-luc luciferase reporter, 48 h", "text": "(§1) SUFU variants with mutated IDR regions, the SUFU-Δ, SUFU-SH, SUFU-SH2 and SUFU-IDRfly constructs, were generated by replacing amino acids 279–360 of N-terminally Myc-tagged full-length SUFU in pcDNA3.1 (Invitrogen) with corresponding sequences synthesized at GenScript USA Inc. (Supplementary Table S1a). HEK 293 cells were transfected with a mixture of GLI1-FLAG or Myc-GLI2 (Roessler et al., 2005[▶]; a kind gift from Erich Roessler) and Myc-SUFU constructs together with 12GLI-RE-TKO-luc luciferase reporter (Kogerman et al., 1999[▶]) and pRL-SV40 (Promega) internal control using Fugene 6 or X-tremeGENE 9 (Roche) transfection reagent. Expression assays were carried out for 48 h, followed by luciferase activity measurements using a Dual Luciferase Activity Assay Kit (Promega). To verify the expression levels of transfected SUFU and GLI constructs, aliquots of cell lysates were separated by SDS–PAGE and subjected to immunoblot analysis as above. The densities of the visualized protein bands were quantified using the ImageJ 1.47v image-analysis and image-processing software (Schneider et al., 2012[▶])."}, "GLI2": {"system": "GLI2", "assay": "GLI2-induced reporter gene activity in HEK 293 cells", "format": "cell-based", "conditions": "transient transfection, HEK 293, 12GLI-RE-TKO-luc luciferase reporter, 48 h", "text": "as §1"}, "[4]": {"system": "Hh pathway, Sufu −/− MEFs", "assay": "Constitutive Hh pathway activity in Sufu −/− MEFs", "format": "cell-based, mouse", "conditions": "Gli-BS luciferase reporter", "description": "Sufu ^−/− mouse embryonic fibroblast (MEF) cells (Svärd et al., 2006[▶]) were transfected with a mixture of p8x3′Gli-BS LucII or p8x3′Gli-mBS LucII reporter constructs (Sasaki et al., 1997[▶]; generous gifts from Hiroshi Sasaki) together with pRL-SV40 (Promega) internal control using Lipofectamine LTX with Plus reagent (Invitrogen) according to the manufacturer’s instructions. Following transfection, Sufu ^−/− MEF cells were grown until the culture reached confluency (24–48 h) and the cells were then switched to low-serum medium (0.5% FBS) with 100–200 nM SAG (kindly provided by Jan Bergman, Karolinska Institutet), 10 µM purmorphamine (Calbiochem) or Shh conditioned medium (1:4) and grown for an additional 48–72 h. Cell lysis and luciferase activity measurements were performed using a Dual Luciferase Activity Assay Kit (Promega). For statistical evaluation of reporter gene assays, a one-tailed paired Student’s t-test was used. All activity measurements were performed at least three times in independent experiments."}, "[5]": {"conditions": "R123C germline mutation; ref Aavikko et al., 2012; cited from earlier work", "text": "SUFU is a tumour suppressor protein that is found to be inactivated most frequently (up to 50%) by germline mutations in children below the age of three presenting with medulloblastoma of the desmoplastic/nodular subtype (Slade et al., 2011[▶]; Brugières et al., 2012[▶]), whereas a somatic mutation frequency of about 10% has been reported for sporadic medulloblastomas of the desmoplastic subtype (Taylor et al., 2002[▶]). Moreover, germline or somatic mutations in the SUFU gene have recently been described in association with meningioma and chondrosarcoma (Aavikko et al., 2012[▶]; Kijima et al. ..."}}, "data": [{"molecule": "MBP-SUFU-FL: MBP fusion containing residues 32–483 of human SUFU and a C-terminal hexahistidine tag (protein, left off: MBP, N-terminal, kept | His6, C-terminal, state not stated, MBP fusion containing residues 32–483 of human SUFU and a C-terminal hexahistidine tag) PGLHAIYGECRRLYPDQPNPLQVTAIVKYWLGGPDPLDYVSMYRNVGSPSANIPEHWHYISFGLSDLYGDNRVHEFTGTDGPSGFGFELTFRLKRETGESAPPTWPAELMQGLARYVFQSENTFCSGDHVSWHSPLDNSESRIQHMLLTEDPQMQPVQTPFGVVTFLQIVGVCTEELHSAQQWNGQGILELLRTVPIAGGPWLITDMRRGETIFEIDPHLQERVDKGIETDGSNLSGVSAKCAWDDLSRPPEDDEDSRSICIGTQPRRLSGKDTEQIRETLRRGLEINSKPVLPPINPQRQNGLAHDRAPSRKDSLESDSSTAIIPHELIRTRQLESVHLKFNQESGALIPLCLRGRLLHGRHFTYKSITGDMAITFVSTGVEGAFATEEHPYAAHGPWLQILLTEEFVEKMLEDLEDLTSPEEFKLPKEYSWPEKKLKVSILPDVVFDSPL", "values": [{"measurement": "Tm", "setting": "[1]", "result": 50.1, "unit": "°C"}, {"measurement": "protease-hypersensitive sites", "setting": "trypsin", "result": "Several protease-hypersensitive sites were found clustered within residues 299–363"}]}, {"molecule": "SUFU-FL: full-length SUFU, N-terminally Myc-tagged (protein, left off: Myc, N-terminal, kept, full-length SUFU, N-terminally Myc-tagged) MAELRPSGAPGPTAPPAPGPTAPPAFASLFPPGLHAIYGECRRLYPDQPNPLQVTAIVKYWLGGPDPLDYVSMYRNVGSPSANIPEHWHYISFGLSDLYGDNRVHEFTGTDGPSGFGFELTFRLKRETGESAPPTWPAELMQGLARYVFQSENTFCSGDHVSWHSPLDNSESRIQHMLLTEDPQMQPVQTPFGVVTFLQIVGVCTEELHSAQQWNGQGILELLRTVPIAGGPWLITDMRRGETIFEIDPHLQERVDKGIETDGSNLSGVSAKCAWDDLSRPPEDDEDSRSICIGTQPRRLSGKDTEQIRETLRRGLEINSKPVLPPINPQRQNGLAHDRAPSRKDSLESDSSTAIIPHELIRTRQLESVHLKFNQESGALIPLCLRGRLLHGRHFTYKSITGDMAITFVSTGVEGAFATEEHPYAAHGPWLQILLTEEFVEKMLEDLEDLTSPEEFKLPKEYSWPEKKLKVSILPDVVFDSPLH", "values": [{"measurement": "GLI1 binding in Co-IP", "setting": "GLI1 [2]", "result": "no remarkable difference in GLI1 binding"}, {"measurement": "repression of transcriptional activity induced by GLI1", "setting": "GLI1 [3]", "result": "efficiently repressed"}, {"measurement": "repression of transcriptional activity induced by GLI2", "setting": "GLI2", "result": "efficiently repressed"}, {"measurement": "suppression of constitutive Hh pathway activity", "setting": "[4]", "result": "suppress constitutive pathway activity in Sufu ^−/− cells (c) with similar efficiency"}]}, {"molecule": "R123C: SUFU R123C mutation segregated with tumour development in a family predisposed to meningiomas (protein, UniProt Q9UMX1 1-484, looked up, variant R123C) Suppressor of fused homolog: MAELRPSGAPGPTAPPAPGPTAPPAFASLFPPGLHAIYGECRRLYPDQPNPLQVTAIVKYWLGGPDPLDYVSMYRNVGSPSANIPEHWHYISFGLSDLYGDNRVHEFTGTDGPSGFGFELTFCLKRETGESAPPTWPAELMQGLARYVFQSENTFCSGDHVSWHSPLDNSESRIQHMLLTEDPQMQPVQTPFGVVTFLQIVGVCTEELHSAQQWNGQGILELLRTVPIAGGPWLITDMRRGETIFEIDPHLQERVDKGIETDGSNLSGVSAKCAWDDLSRPPEDDEDSRSICIGTQPRRLSGKDTEQIRETLRRGLEINSKPVLPPINPQRQNGLAHDRAPSRKDSLESDSSTAIIPHELIRTRQLESVHLKFNQESGALIPLCLRGRLLHGRHFTYKSITGDMAITFVSTGVEGAFATEEHPYAAHGPWLQILLTEEFVEKMLEDLEDLTSPEEFKLPKEYSWPEKKLKVSILPDVVFDSPLH", "values": [{"measurement": "inhibitory activity in cellular assays", "setting": "[5]", "result": "reduced inhibitory activity"}]}, {"molecule": "MBP-SUFU-Δ: MBP-SUFU with amino acids 279–360 replaced by the heptamer sequence PSRGEDP (protein, left off: MBP, N-terminal, kept | His6, C-terminal, state not stated) PGLHAIYGECRRLYPDQPNPLQVTAIVKYWLGGPDPLDYVSMYRNVGSPSANIPEHWHYISFGLSDLYGDNRVHEFTGTDGPSGFGFELTFRLKRETGESAPPTWPAELMQGLARYVFQSENTFCSGDHVSWHSPLDNSESRIQHMLLTEDPQMQPVQTPFGVVTFLQIVGVCTEELHSAQQWNGQGILELLRTVPIAGGPWLITDMRRGETIFEIDPHLQERVDKGIETDGSNLSGVSAKCAWDDLPSRGEDPIRTRQLESVHLKFNQESGALIPLCLRGRLLHGRHFTYKSITGDMAITFVSTGVEGAFATEEHPYAAHGPWLQILLTEEFVEKMLEDLEDLTSPEEFKLPKEYSWPEKKLKVSILPDVVFDSPL", "values": [{"measurement": "Tm", "setting": "[1]", "result": 46.6, "unit": "°C"}]}]}
